In article doi:10.1101/2022.05.21.492920 one finds Kd data, which are given here for two substances.

In the assay the target is SARS-CoV-2 S (Acro Biosystems), unlabelled (SARS-CoV-2) (UniProt P0DTC2). As to the kind of experiment: SPR; Biacore, CM5 chip; S covalently immobilised at pH 4.0 (about 8500 RU); ERα, ACE2 or NRP1 injected at 1.56 to 200 nM; global fit to a single site binding model. (In SPR one partner is held on a chip, and binding of the other changes the refractive index at the surface.)

For the substance “ERα-full length (InVitrogen), analyte in SPR (from UniProt P03372 1-595) (receptor)”, the Kd is 9.7 nM.

For the substance “recombinant NRP1 (Acro Biosystems), analyte in SPR (from UniProt O14786 22-856) (natural protein)”, the Kd was 89.4 nM.

By Kd is commonly meant the equilibrium constant for the complex coming apart. A high value points to a looser complex.
